The values that follow come from patent publication WO2021228904A1 (dated 2021).

B1: SEQ ID NOs: 57/61 (HCVR/LCVR) (antibody, V domains shown)
VH: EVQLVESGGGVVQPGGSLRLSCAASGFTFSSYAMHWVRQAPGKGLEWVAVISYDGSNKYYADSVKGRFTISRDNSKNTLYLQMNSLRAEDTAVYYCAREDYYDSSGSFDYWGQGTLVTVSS
VL: QSVLTQPASVSGSPGQSITISCTGTSSDVGGYNYVSWYQQHPGKAPKLMIYDVSNRPSGVSNRFSGSKSGNTASLTISGLQAEDEADYYCSSYTSSSTRHWVFGGGTKLTVL
B2: SEQ ID NOs: 493/497 (HCVR/LCVR) (antibody, V domains shown)
VH: EVQLVQSGAEVKKPGESLKISCKGSGYSFTSYWIDWVRQMPGKGLEWMGIFYPGDSDTRYSPSFQGQVTISADKSISTAYLQWSSLKASDTAMYYCARHNPDYYDSSGPLDYWGQGTLVTVSS
VL: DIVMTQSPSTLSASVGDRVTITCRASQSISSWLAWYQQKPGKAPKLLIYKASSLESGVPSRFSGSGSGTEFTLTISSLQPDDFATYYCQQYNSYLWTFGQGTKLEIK
B3: SEQ ID NOs: 653/657 (HCVR/LCVR) (antibody, V domains shown)
VH: EVQLVESGGGLVQPGRSLRLSCAASGFTFDDYAMHWVRQAPGKGLEWVSGISWNSGSIGYADSVKGRFTISRDNAKNSLYLQMNSLRAEDTALYYCAKMGPDPAHDYGRKNDAFDIWGQGTMVTVSS
VL: DIVMTQSPSSLSASVGDRVTITCRASQSMSSYLNWYQQKPGKAPKLLIYAASSLQSGVPSRFSGSGSGTDFTLTISSLQPEDFATYYCQQSYSTLTFGGGTKLEIK
B4: SEQ ID NOs: 217/221 (HCVR/LCVR) (antibody, V domains shown)
VH: EVQLVESGGGLVQPGGSLRLSCAASGFTFSSYDMHWVRQTTGKGLQWVSAIGTAGDTYYPGSVKGRFTISRENAKNSLYLQMNSLRAGDTAVYYCARGGDRYPVGYFDLWGRGTLVTVSS
VL: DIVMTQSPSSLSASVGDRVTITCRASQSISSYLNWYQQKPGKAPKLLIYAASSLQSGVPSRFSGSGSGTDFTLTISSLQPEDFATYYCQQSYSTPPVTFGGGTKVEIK
B5: 001_P1G11 (antibody, V domains shown)
VH: EVQLVQSGTEVKKPGASVKVSCKASGYTFPGYYIHWVRQAPGQGLEWMGWINPNSGVAKSAQKFQGRVTMTRDSSISTVYLDVTSDDTAVYYCARDLVWATVSGTMDVWGQGTTVTVSS
VL: QSALTQPPSASGSPGQSVTISCTGTSSDIGTYNYVSWYQQHPGKAPKLMIYEVTKRPSGVPDRFSGSKSGNTASLTVSGLQADDEGDYYCSSYVGNNNWVFGGGTKLTVL
B6: SEQ ID NOs: 557/561 (HCVR/LCVR) (antibody, V domains shown)
VH: EVQLVESGGGVVQPGRSLRLSCAASGFTFSSYAMHWVRQAPGKGLEWVAVISYDGSYKYYADSVKGRFTISRDNSKNTLYLQMNSLTAEDTAVYYCAREGSRQWLVIYFDYWGQGTLVTVSS
VL: AIRMTQSPSSLSASVGDRVTITCRASQSISSYLNWYQQKPGKAPKLLIYAASSLQSGVPSRFSGSGSGTDFTLTISSLQPEDFATYYCQQSYTTFIYTFGQGTKLEIK
B7: SEQ ID NOs: 461/465 (HCVR/LCVR) (antibody, V domains shown)
VH: EVQLVESGAEVKKPGSSVKVSCKASGGTFSSYAISWVRQAPGQGLEWMGGIIPIFGTANYAQKFQGRATITTDESTSTAYMELSSLGSEDTAVYYCARTHSYDNSGQYFDYWGQGTMVTVSS
VL: DIVMTQSPATLSLSPGERATLSCRASQSVSSFLAWYQQKPGQAPRLLIYDASNRATGIPARFSGSGSGTDFTLTISSLEPEDFAVYYCQQRSNWPPRLTFGGGTKVDIK
B8: 002_P2C4 (antibody, V domains shown)
VH: QVQLVESGAEVKKPGSSVKVSCKASGGTFSSYGINWVRQAPGQGLEWMGGIIPIFGTANYAQKFQGRVTITTDESTSTAYMELSSLRSEDTAVYYCASFGDDSGDEGVRWGQGTLVTVSS
VL: EIVMTQSPATLSLSPGERATLSCRASQSVSSYLAWYQQKPGQAPRLLIYDASNRATGIPARFSGSGSGTDFTLTISSLEPEDFAVYYCQQRSNWPPYTFGQGTKVEIK
B9: SEQ ID NOs: 421/425 (HCVR/LCVR) (antibody, V domains shown)
VH: EVQLVQSGAEVKKPGASVKVSCKASGYTFTSYDINWVRQATGQGLEWMGWMNPNSGNTGYAQKFQGRVTMTRNTSISTAYMELSSLRSEDTAVYYCARVVGSSWYPVDAFDIWGQGTRVTVSS
VL: QSVLTQPASVSGSPGQSITISCTGTSSDVGGYNYVSWYQQHPGKAPKLMIYDVSNRPSGVSNRFSGSKSGNTASLTISGLQAEDEADYYCSSYTSSSTLVVFGGGTKLTVL
B10: SEQ ID NOs: 73/77 (HCVR/LCVR) (antibody, V domains shown)
VH: EVQLVESGGGLVQPGGSLRLSCAASGFTVTSTYMTWVRRAPGKGLEWVSIIYNDDTTYYADSVKDRVTVSRDDSKNTLYLQMNSLRAEDTAIYYCARGGYYYDPSGYYSRSFSFDYWGQGTLVTVSS
VL: NFMLTQPASVSGSPGQSITISCTGSSSDIAPYTFVSWYQQHSGTAPKLIIYDVRNRPSGISDRFSGSRSGNTASLSISGLQAEDEADYYCSAYTTTSTSWVFGGGTKLTVL
B11: SEQ ID NOs: 621/625 (HCVR/LCVR) (antibody, V domains shown)
VH: QVQLVQSGAEVKKPGASVKVSCKVSGYTLTELSMHWVRQAPGKGLEWMGGFDPEDGETIYAQKFQGRVTMTEDTSTDTAYMELSSLRSEDTAVYYCATAYSVDTAMVRGVGYWGQGTLVTVSS
VL: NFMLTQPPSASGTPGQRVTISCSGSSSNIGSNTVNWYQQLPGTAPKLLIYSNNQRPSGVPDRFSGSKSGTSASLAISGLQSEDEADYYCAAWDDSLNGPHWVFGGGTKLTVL
B12: SEQ ID NOs: 661/665 (HCVR/LCVR) (antibody, V domains shown)
VH: EVQLVESRAEMKKPGESLKISCKGSGYTFTNHWIAWVRQMPGKGLEWMGIIYPGDSDTRYSPSFEGQVTISADKSISTAYLQWSSLKASDTAMYYCARRGYTYGADFYGLDVWGQGTRVTVSS
VL: not shown

For the assay, the target named is SARS-CoV-2 receptor binding domain (RBD), amino acids 319-541, octahistidine tag (SARS-CoV-2, UniProt P0DTC2 319-541). Nature of the assay: not named there; ELISA in Example 4.
As for B1, the binding result was “binds”.

Regarding B2, the binding result is “binds”.

For B3, the binding result is given as “binds”.

With B4, the binding result was “binds”.

On to B5, for which the binding result is on record as “binds”.

For the molecule B6, the binding result is listed as “binds”.

For the molecule B7, the binding result was “binds”.

As to B8, the binding result is given as “binds”.

Regarding B9, the binding result is reported as “binds”.

With B10, the binding result is on record as “binds”.

On to B11, for which the binding result is “binds”.

Consider B12, for which the binding result is “binds”.
